B1: alpha-COP, the 135-kD subunit of coatomer (bovine), GAL4 fusion (natural protein, UniProt Q27954 1-1224, looked up)
chain: MLTKFETKSARVKGLSFHPKRPWILTSLHNGVIQLWDYRMCTLIDKFDEHDGPVRGIDFHKQQPLFVSGGDDYKIKVWNYKLRRCLFTLLGHLDYIRTTFFHHEYPWILSASDDQTIRVWNWQSRTCVCVLTGHNHYVMCAQFHPSEDLVVSASLDQTVRVWDISGLRKKNLSPGAVESDVRGITGVDLFGTTDAVVKHVLEGHDRGVNWAAFHPTMPLIVSGADDRQVKIWRMNESKAWEVDTCRGHYNNVSCAVFHPRQELILSNSEDKSIRVWDMSKRTGVQTFRRDHDRFWVLAAHPNLNLFAAGHDGGMIVFKLERERPAYAVHGNMLHYVKDRFLRQLDFNSSKDVAVMQLRSGSKFPVFSMSYNPAENAVLLCTRASNLENSTYDLYTIPKDADTQNPDAPEGKRSSGLTAVWVARNRFAVLDRMHSLLIKNLKNEITKKVQVPNCDEIFYAGTGNLLLRDAESITLFDVQQKRTLASVKISKVKYVIWSADMSHVALLAKHAIVICNRKLEALCNIHENIRVKSGAWDESGVFIYTTSNHIKYAVTTGDYGIIRTLDLPIYVTRVKGNNVYCLDRECRPRVLTIDPTEFKFKLALINRKYDEVLHMVRNAKLVGQSIIAYLQKKGYPEVALHFVKDEKTRFSLALECGNIEIALEAAKALDDKNCWEKLGEVALLQGNHQIVEMCYQRTKNFDKLSFLYLITGNLEKLRKMMKIAEIRKDMSGHYQNALYLGDVSERVRILKNCGQKSLAYLTAATHGLDEEAESLKETFDPEKETIPDIDPNAKLLQPPAPIMPLDTNWPLLTVSKGFFEGSIASKGKGGALAADIDIDTVGTEGWGEDAELQLDEDGFVEATEGLGDDALGKGQEEGGGWDVEEDLELPPELDIPPGAAGGAEDGFFVPPTKGTSPTQIWCNNSQLPVDHILAGSFETAMRLLHDQVGVTQFGPYKQLFLQTYARGRTTYQALPCLPSMYGYPNRNWKDAGLKNGVPAVGLKLNDLIQRLQLCYQLTTVGKFEEAVEKFRSILLSVPLLVVDNKQEIAEAQQLITICREYIVGLSMETERKKLPKETLEQQKRICEMAAYFTHSNLQPVHMILVLRTALNLFFKLKNFRTAAAFARRLLELGPKPEVAQQTRKILSACEKNPTDAYQLNYDMHNPFDICAASYRPIYRGKPVEKCPLSGACYSPEFKGQICKVTTVTEIGKDVIGLRISPLQFR
B2: beta'-COP, GAL4 fusion (natural protein, bovine, UniProt P35605 1-906, looked up)
chain: MPLRLDIKRKLTARSDRVKSVDLHPTEPWMLASLYNGSVCVWNHETQTLVKTFEVCDLPVRAAKFVARKNWVVTGADDMQIRVFNYNTLERVHMFEAHSDYIRCIAVHPTQPFILTSSDDMLIKLWDWDKKWSCSQVFEGHTHYVMQIVINPKDNNQFASASLDRTIKVWQLGSSSPNFTLEGHEKGVNCIDYYSGGDKPYLISGADDRLVKIWDYQNKTCVQTLEGHAQNVSCASFHPELPIIITGSEDGTVRIWHSSTYRLESTLNYGMERVWCVASLRGSNNVALGYDEGSIIVKLGREEPAMSMDANGKIIWAKHSEVQQANLKAMGDAEIKDGERLPLAVKDMGSCEIYPQTIQHNPNGRFVVVCGDGEYIIYTAMALRNKSFGSAQEFAWAHDSSEYAIRESNSVVKIFKNFKEKKSFKPDFGAESIYGGFLLGVRSVNGLAFYDWENTELIRRIEIQPKHIFWSDSGELVCIATEESFFILKYLSEKVLAAQETHEGVTEDGIEDGFEVLGEIQEIVKTGLWVGDCFIYTSSVNRLNYYVGGEIVTIAHLDRTMYLLGYIPKDNRLYLGDKELNIVSYSLLVSVLEYQTAVMRRDFSMADKVLPTIPKEQRTRVAHFLEKQGFKQQALTVSTDPEHRFELALQLGELKIAYQLAVEAESEQKWKQLAELAISKCQFGLAQECLHHAQDYGGLLLLATASGNASMVNKLAEGAERDGKNNVAFMSYFLQGKLDACLELLIRTGRLPEAAFLARTYLPSQVSRVVKLWRENLSKVNQKAAESLADPTEYENLFPGLKEAFVVEEWVKETHADLWPAKQYPLVTPNEERNVMEEAKGFQPSRSAAQQELDGKPASPTPVIVTSQTANKEEKSLLELEVDLDNLEIEDIDTTDINLDEDILDD
B3: epsilon-COP, GAL4 fusion (natural protein)
chain: not shown

What was measured:
epsilon-COP, GAL4 fusion = target: B3; assay: two-hybrid
[1] = target: B1; assay: two-hybrid

Sequence of epsilon-COP, GAL4 fusion (Q28104 whole entry, the tested form may be a part): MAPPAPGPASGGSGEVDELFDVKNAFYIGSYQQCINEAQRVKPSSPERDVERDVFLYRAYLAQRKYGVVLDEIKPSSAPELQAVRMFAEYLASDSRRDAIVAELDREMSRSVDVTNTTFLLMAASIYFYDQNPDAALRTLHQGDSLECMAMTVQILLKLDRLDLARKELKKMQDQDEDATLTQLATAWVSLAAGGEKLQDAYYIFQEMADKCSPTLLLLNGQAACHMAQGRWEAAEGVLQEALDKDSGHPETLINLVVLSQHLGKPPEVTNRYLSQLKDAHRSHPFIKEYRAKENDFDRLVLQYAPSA

generations/day in -His + 25 mM AT (epsilon-COP, GAL4 fusion) | generations/day in -His + 25 mM AT [1] | Binder
2.8 generations/day |  | B1
 | 2.11 generations/day | B2
 | 5.2 generations/day | B3

Source: publication PMC2121028 (The Journal of Cell Biology, 1996)
